Results as given in paper PMC9935876, “Structure of the planar cell polarity cadherins Fat4 and Dachsous1” (Nature Communications, 2023).

B1: human Fat4(EC1–4) [human] / human Dchs1(EC1–4) [human] (parent complex)
chain 1: DPAEPRQVFQVLEEQPPGTLVGTIQTRPGFTYRLSESHALFAINSSTGALYTTSTIDRESLPSDVINLVVLSSAPTYPTEVRVLVRDLNDNAPVFPDPSIVVTFKEDSSSGRQVILDTATDSDIGSNGVDHRSYRIIRGNEAGRFRLDITLNPSGEGAFLHLVSKGGLDREVTPQYQLLVEVEDKGEPKRRGYLQVNVTVQDINDNPPVFGSSHYQAGVPEDAVVGSSVLQVAAADADEGTNADIRYRLQDEGTPFQMDPETGLITVREPLDFEARRQYSLTVQAMDRGVPSLTGRAEALIQLLDVNDNDPVVKFRYFPATSRYASVDENAQVGTVVALLTVTDADSPAANGNISVQILGGNEQRHFEVQSSKVPNLSLIKVASALDRERIPSYNLTVSVSDNYGAPPGAAVQARSSVASLVIFVNDINDHPPVF
chain 2: DPQAGSLDLQIDEEQPAGTLIGDISAGLPAGTAAPLMYFISAQEGSGVGTDLAIDEHSGVVRTARVLDREQRDRYRFTAVTPDGATVEVTVRVADINDHAPAFPQARAALQVPEHTAFGTRYPLEPARDADAGRLGTQGYALSGDGAGETFRLETRPGPDGTPVPELVVTGELDRENRSHYMLQLEAYDGGSPPRRAQALLDVTLLDINDHAPAFNQSRYHAVVSESLAPGSPVLQVFASDADAGVNGAVTYEINRRQSEGDGPFSIDAHTGLLQLERPLDFEQRRVHELVVQARDGGAHPELGSAFVTVHVRDANDNQPSMTVIFLSADGSPQVSEAAPPGQLVARISVSDPDDGDFAHVNVSLEGGEGHFALSTQDSVIYLVCVARRLDREERDAYNLRVTATDSGSPPLRAEAAFVLHVTDVNDNAPAF
B2: human Dchs1(EC1–4) [human] / human Fat4(EC1–4) [human] (parent complex)
chain 1: B1 chain 2
chain 2: B1 chain 1

Variants of: B1
Assay: ITC; parent: 1; read off a plot

Row | Variant | ratio to parent
1 | chain 1 DPAEPRQVFQVLEEQPPGTLVGTIQTRPGFTYRLSESHALFAINSSTGALYTTSTIDRESLPSDVINLVVLSSAPTYPTEVRVLVRDLNDNAPVFPDPSIVVTFKEDSSSGRQVILDTATDSDIGSNGVDHRSYRIIRGNEAGRFRLDITLNPSGEGAFLHLVSKGGLDREVTPQYQLLVEVEDKGEPKRRGYLQVNVTVQDINDNPPVFGSSHYQAGVPEDAVVGSSVLQVAAADADEGTNADIRYRLQDEGTPFQMDPETGLITVREPLDFEARRQYSLTVQAMDRGVPSLTGRAEALIQLLDVNDNDPVVKFRYAPATSRYASVDENAQVGTVVALLTVTDADSPAANGNISVQILGGNEQRHFEVQSSKVPNLSLIKVASALDRERIPSYNLTVSVSDNYGAPPGAAVQARSSVASLVIFVNDINDHPPVF [chain 1 F318A] | ~1.8

Variants of: B2
Assay: ITC; parent: 1; read off a plot

Row | Variant | ratio to parent
2 | chain 1 DPQAGSLDLQIDEEQPAGTLIGDISAGLPAGTAAPLMYAISAQEGSGVGTDLAIDEHSGVVRTARVLDREQRDRYRFTAVTPDGATVEVTVRVADINDHAPAFPQARAALQVPEHTAFGTRYPLEPARDADAGRLGTQGYALSGDGAGETFRLETRPGPDGTPVPELVVTGELDRENRSHYMLQLEAYDGGSPPRRAQALLDVTLLDINDHAPAFNQSRYHAVVSESLAPGSPVLQVFASDADAGVNGAVTYEINRRQSEGDGPFSIDAHTGLLQLERPLDFEQRRVHELVVQARDGGAHPELGSAFVTVHVRDANDNQPSMTVIFLSADGSPQVSEAAPPGQLVARISVSDPDDGDFAHVNVSLEGGEGHFALSTQDSVIYLVCVARRLDREERDAYNLRVTATDSGSPPLRAEAAFVLHVTDVNDNAPAF [chain 1 F39A] | ~4.4
